These results are taken from patent US20040013647A1.

The target in this test is 508F(Fv)-CBD (508 scFv mutant C96F fused to CBD) (Clostridium thermocellum) (UniProt Q06851). Put plainly: competitive ELISA, soluble βAP(1-16) pre-incubated with 508F(Fv)-CBD before βAP coated wells. (In general: An ELISA detects its analyte on a solid surface through an enzyme-linked reagent.)

A word on the IC50: it is the concentration needed to halve the response being measured. Low readings indicate inhibition by little substance, high ones a need for much substance. On to “βAP(1-16), β-amyloid 1-16 amino acid peptide”, for which the IC50 was 1000 nM.
